The data set has as its target T1, Nuclease H T783R/E43R/A170R (synthetic construct, T783R,E43R,A170R).
T1 chain: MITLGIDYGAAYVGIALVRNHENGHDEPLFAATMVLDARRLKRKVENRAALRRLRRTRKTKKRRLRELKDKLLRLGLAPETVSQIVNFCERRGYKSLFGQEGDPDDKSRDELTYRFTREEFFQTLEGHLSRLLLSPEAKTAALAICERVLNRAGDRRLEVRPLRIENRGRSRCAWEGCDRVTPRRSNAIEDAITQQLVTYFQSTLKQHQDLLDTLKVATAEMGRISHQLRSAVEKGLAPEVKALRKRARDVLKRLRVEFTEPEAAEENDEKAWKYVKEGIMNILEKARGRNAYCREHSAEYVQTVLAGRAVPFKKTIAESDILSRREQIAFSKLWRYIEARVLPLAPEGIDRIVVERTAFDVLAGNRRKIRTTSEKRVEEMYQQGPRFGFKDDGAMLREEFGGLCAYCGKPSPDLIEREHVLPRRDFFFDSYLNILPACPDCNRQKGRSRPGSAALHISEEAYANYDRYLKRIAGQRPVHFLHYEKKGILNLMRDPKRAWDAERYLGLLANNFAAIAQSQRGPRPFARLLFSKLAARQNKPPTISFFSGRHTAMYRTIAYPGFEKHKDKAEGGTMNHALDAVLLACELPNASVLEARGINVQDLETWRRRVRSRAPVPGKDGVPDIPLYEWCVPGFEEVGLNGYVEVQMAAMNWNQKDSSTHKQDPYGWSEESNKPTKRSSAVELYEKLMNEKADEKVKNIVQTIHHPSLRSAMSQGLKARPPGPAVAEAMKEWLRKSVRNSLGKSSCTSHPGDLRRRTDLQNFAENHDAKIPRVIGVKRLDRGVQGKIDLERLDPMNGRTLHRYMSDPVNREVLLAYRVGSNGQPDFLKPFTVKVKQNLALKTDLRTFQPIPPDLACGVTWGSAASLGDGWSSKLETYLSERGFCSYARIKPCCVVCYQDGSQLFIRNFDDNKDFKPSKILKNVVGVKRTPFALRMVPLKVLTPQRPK
The data set can be described thus: cell_activity; HEK293T; PAM AAC. The settings on record: tags: N-term SV40 NLS, XTEN linker + C-term nucleoplasmin NLS. As for the experimental part:
HEK293T cells were transfected with plasmids expressing the Nuclease H polypeptides and the gRNAs provided herein following the methods provided in Example 1 above. Gene editing efficiencies were determined by NGS following the methods also provided in Example 1. The NGS results were analyzed also following the methods provided in Example 1 above.
Each Nuclease H variant and RNA guide (see Table 16) was cloned as described in Example 9. HEK293T cells were further transfected, followed by NGS analysis, as described in Example 10. For each target, indel ratios, referring to the percentage of NGS reads comprising indels, were calculated for the reference Nuclease H (SEQ ID NO: 64) and for each Nuclease H variant. The indel ratios shown in Table 18 were calculated as the average of two bioreplicates, each of which contained two technical replicates.

B1: H AAVS1-T5 RNA guide ; AAVS1-T5 target (H) (ssRNA ; dsDNA)
RNA: GGCUAUAAUCCAUGCUGACCGUUUCAAUCAACCUGAUCUCUCUGCUUGCGCUGCAGGCUUCAUAAGAUCAGUAGGUUGAAAAGAGCAUCCGUCCGACAUGCACUCCGGGAUGGGGCAGUCCCGGCUCUUGCGGUUCCCGAUGCAGUUAUGUGUCCGCGGAACACGGUGUCGGACACGUCGCAAGACAGGAUGUGAGCCCAUUAUCCACAUUAGGAUCAAUGUACGCAUGAGCAGUCCGCAAUGCCGGGGACGCU
DNA 1: GGCTATAATCCATGCTGACC
DNA 2: GGTCAGCATGGATTATAGCC
For B1, the activity was 0.184 indel ratio.

Values taken from patent US20260275312, “CRISPR NUCLEASE POLYPEPTIDES AND GENE EDITING SYSTEMS COMPRISING SUCH” (ARBOR BIOTECHNOLOGIES, INC., published 2026).
